Ends that are not written are not given here.

The source of these data is patent publication EP4296276A1 (Forschungszentrum Jülich GmbH, dated 2023).

Common to all, as to assay: BLI (Octet), peptide immobilised, protein 2 µM; KD = koff/kon
Background: In BLI a coated tip is dipped into the sample, and binding shifts an interference pattern.

In assay [1] the target is T1, wild-type (WT) human DISC1 C-region (residues 691-836) (human, UniProt Q9NRI5 691-836).
T1 construct: range 691-836; Expressed in E. coli as an N-terminal His6 fusion construct, purified on Co2+-NTA and by size exclusion; Used in solution at 2 µM in BLI; also called WT C-region; C-region of DISC1; not shown: N-terminal His6 fusion tag
T1 sequence (looked up): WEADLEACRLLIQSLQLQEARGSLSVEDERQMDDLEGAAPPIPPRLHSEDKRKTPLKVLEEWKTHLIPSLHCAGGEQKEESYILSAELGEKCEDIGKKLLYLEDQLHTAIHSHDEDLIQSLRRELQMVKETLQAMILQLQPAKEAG

Assay [2] concerns the target T2, DISC1 C-region (residues 691-836) mutant S713E (human, UniProt Q9NRI5 691-836).
T2 construct: range 691-836; Expression and tag are described only for the WT construct (N-terminal His6)
T2 sequence (looked up): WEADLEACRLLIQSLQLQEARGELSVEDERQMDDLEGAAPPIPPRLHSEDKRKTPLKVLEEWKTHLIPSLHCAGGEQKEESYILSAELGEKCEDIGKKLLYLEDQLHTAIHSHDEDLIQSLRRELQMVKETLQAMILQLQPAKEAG

Assay [3] concerns the target T3, DISC1 C-region (residues 691-836) mutant S704C (human, UniProt Q9NRI5 691-836).
T3 construct: range 691-836; Expression and tag are described only for the WT construct (N-terminal His6)
T3 sequence (looked up): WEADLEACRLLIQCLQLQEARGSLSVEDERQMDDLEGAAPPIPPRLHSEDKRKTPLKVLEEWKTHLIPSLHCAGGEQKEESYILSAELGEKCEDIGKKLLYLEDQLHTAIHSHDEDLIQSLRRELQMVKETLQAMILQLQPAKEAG

The target of assay [4] is DISC1 C-region mutant L807-frameshift (human) (UniProt Q9NRI5).

B1: Flo8 (KYTAIHEWYKAHNGGA-NH2) (peptide)
peptide: KYTAIHEWYKAHNGGA-NH2
notes: Phage display hit selected on oligomeric WT C-region; Immobilised on the BLI sensor by EDC/NHS coupling
Regarding B1, the Kd in assay [1] came to 2620 nM; in assay [2] it was 460 nM; in assay [3] it was 1040 nM.

B2: Flm9 (PWYNAPHSHGFWGSGR-NH2) (peptide)
peptide: PWYNAPHSHGFWGSGR-NH2
notes: Phage display hit selected on monomeric WT C-region; Immobilised on the BLI sensor by EDC/NHS coupling
On to B2, for which the Kd in assay [1] was 3200 nM; in assay [2], 1500 nM; in assay [3], 1490 nM.

B3: Flm1 (…-NH2) (peptide)
peptide: IWAGHIHDWWRRGQGS-NH2
modifications: not fully specified; printed as IWAGHIHDWWRRGQGS-NH2
With B3, the Kd in assay [4] turned out to be 200 nM.

B4: Flo6 (SNWHPRHFFMSPSSPQ-NH2) (peptide)
peptide: SNWHPRHFFMSPSSPQ-NH2
notes: as for B1
With B4, the Kd worked out at 2360 nM in assay [1], 460 nM in assay [2] and 720 nM in assay [3].

B5: Flm5 (…-NH2) (peptide)
peptide: GIKSLISNKMHTQWNY-NH2
On to B5, for which, in assay [4], the Kd came out at 110 nM.

B6: Flm2 (AWQHHELKWKQYQGWR-NH2) (peptide)
peptide: AWQHHELKWKQYQGWR-NH2
notes: as for B2
On to B6, for which the Kd in assay [1] is 640 nM; in assay [2], 220 nM; in assay [3], 150 nM.

B7: Flm9 (…-NH2) (peptide)
peptide: PWYNAPHSHGFWGSGR-NH2
For B7, the Kd in assay [4] was found to be 390 nM.

B8: Flm1 (IWAGHIHDWWRRGQGS-NH2) (peptide)
peptide: IWAGHIHDWWRRGQGS-NH2
modifications: not fully specified; printed as IWAGHIHDWWRRGQGS-NH2
notes: as for B2
Consider B8, for which the dissociation constant (Kd) was 150 nM in assay [1], 80 nM in assay [2] and 80 nM in assay [3].

B9: Flo1 (…-NH2) (peptide)
peptide: FPHPTLKHREFMRHVS-NH2
With B9, the Kd in assay [4] came to 40 nM.

B10: Flo5 (…-NH2) (peptide)
peptide: QDNPWWHEHKHWKSWP-NH2
As to B10, in assay [4], the Kd stood at 270 nM.

B11: Flm11 (HKLHHLLKWENQHKVE-NH2) (peptide)
peptide: HKLHHLLKWENQHKVE-NH2
notes: as for B2
Regarding B11, the dissociation constant Kd is 1270 nM in assay [1], 420 nM in assay [2] and 720 nM in assay [3].

B12: Flm6 (WNHPMNIRSISWHKDS-NH2) (peptide)
peptide: WNHPMNIRSISWHKDS-NH2
notes: as for B2
Regarding B12, the dissociation constant (Kd) in assay [1] was 2010 nM; in assay [2], 1070 nM; in assay [3], 2240 nM.

B13: Flm6 (…-NH2) (peptide)
peptide: WNHPMNIRSISWHKDS-NH2
Take B13: the Kd in assay [4] was 530 nM.

B14: Flo11 (TSGVPWWKFQQQVRRT-NH2) (peptide)
peptide: TSGVPWWKFQQQVRRT-NH2
notes: as for B1
Turning to B14, the figures for the Kd in assay [1], in assay [2] and in assay [3] were 3680 nM, 890 nM and 1060 nM, respectively.

B15: Flm11 (…-NH2) (peptide)
peptide: HKLHHLLKWENQHKVE-NH2
On to B15, for which the Kd in assay [4] stood at 540 nM.

B16: Flo3 (HISMQTYKWSQWAKHQ-NH2) (peptide)
peptide: HISMQTYKWSQWAKHQ-NH2
notes: as for B1
Regarding B16, the figures for the Kd in assay [1], in assay [2] and in assay [3] were 2620 nM, 420 nM and 270 nM, respectively.

B17: Flm2 (…-NH2) (peptide)
peptide: AWQHHELKWKQYQGWR-NH2
B17: in assay [4], the Kd stood at 110 nM.

B18: Flo11 (…-NH2) (peptide)
peptide: TSGVPWWKFQQQVRRT-NH2
In the case of B18, the Kd in assay [4] came out at 160 nM.

B19: Flo3 (…-NH2) (peptide)
peptide: HISMQTYKWSQWAKHQ-NH2
For the molecule B19, the Kd in assay [4] is 400 nM.

B20: Flm5 (GIKSLISNKMHTQWNY-NH2) (peptide)
peptide: GIKSLISNKMHTQWNY-NH2
notes: as for B2
With B20, the Kd in assay [1] worked out at 640 nM; in assay [2] it was 80 nM; in assay [3] it was 150 nM.

B21: Flo8 (…-NH2) (peptide)
peptide: KYTAIHEWYKAHNGGA-NH2
Regarding B21, in assay [4], the Kd worked out at 170 nM.

B22: Flo6 (…-NH2) (peptide)
peptide: SNWHPRHFFMSPSSPQ-NH2
As to B22, in assay [4], the Kd is 170 nM.

B23: Flo1 (FPHPTLKHREFMRHVS-NH2) (peptide)
peptide: FPHPTLKHREFMRHVS-NH2
notes: as for B1
Consider B23, for which the Kd in assay [1] was 100 nM; in assay [2], 70 nM; in assay [3], 160 nM.

B24: Flo5 (QDNPWWHEHKHWKSWP-NH2) (peptide)
peptide: QDNPWWHEHKHWKSWP-NH2
notes: as for B1
In the case of B24, the results for the Kd in assay [1], in assay [2] and in assay [3] were 250 nM, 210 nM and 360 nM, respectively.

The term Kd denotes the concentration at which binding is half-saturated.
